Assay [1] deals with T1, PD-1 on the cell surface (Molt-4 cells; KG PD-1 cells) (UniProt Q15116 25-288, limits assumed).
T1 construct: whole, on cells; Molt-4 is a human acute lymphoblastic leukemia line; also called PD-1-expressing Molt 4 cells; K562 GFP (KG) PD-1 cells
The assay can be described thus: flow cytometry of detectable cell surface PD-1 on Molt-4 cells that co-express the CAR (masking in cis). In general terms: Flow cytometry measures light scatter and fluorescence of single cells or particles in a stream.

In assay [2] the target is T2, PE- or biotin-conjugated human PD-1 Fc fusion protein (Acrobiosystems) (human, UniProt Q15116 25-167, limits assumed, PE- or biotin-conjugated).
T2 construct: Bought reagent (Acrobiosystems); also called PD-1-Fc-PE; PD-1 Fc chimera; not shown: Fc part of the bought fusion protein
Put plainly: flow cytometry, PD-1 Fc staining of transduced Jurkat Nur77-NeonGreen cells. The source says: The biotin-conjugated PD-1-Fc protein was counterstained with BV421-conjugated Streptavidin (Invitrogen).
The EGFRt-tag was detected as a surrogate marker for CAR expression for the six constructs (FIGS. 2A and 9). CARs directed against antigens expressed in T cells may at times lead to fratricide and hamper CAR T cell production.

T1 sequence (Q15116 25-288 limits assumed): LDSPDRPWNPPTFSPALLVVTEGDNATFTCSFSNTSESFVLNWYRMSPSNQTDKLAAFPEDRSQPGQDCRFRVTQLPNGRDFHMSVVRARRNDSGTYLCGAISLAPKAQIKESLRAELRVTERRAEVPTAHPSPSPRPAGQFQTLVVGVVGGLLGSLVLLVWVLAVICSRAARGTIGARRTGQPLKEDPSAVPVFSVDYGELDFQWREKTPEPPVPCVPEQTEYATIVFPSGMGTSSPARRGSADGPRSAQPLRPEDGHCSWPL
T2 sequence (Q15116 25-167 limits assumed): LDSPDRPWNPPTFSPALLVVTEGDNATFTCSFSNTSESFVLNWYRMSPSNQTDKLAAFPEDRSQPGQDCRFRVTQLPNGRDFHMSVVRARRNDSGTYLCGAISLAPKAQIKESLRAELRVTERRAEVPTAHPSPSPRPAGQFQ

B1: VH VL S anti-PD-1 CAR BD (binding-defective) (other)
chain: QVQLVQSGVEVKKPGASVKVSCKASGYTFANYFMYWVRQAPGQGLEWMGGIAPAAGGAAFNEKFKNRVTLTTDSSTTTAYMELKSLQFDDTAVYYCARADFAFDMGFDYWGQGTTVTVSSASTKGGGGGSGGGGSGGGGSEIVLTQSPATLSLSPGERATLSCRASKGVSTAGFSYLHWYQQKPGQAPRLLIFLASFLESGVPARFSGSGSGTDFTLTISSLEPEDFAVYYCQHARALPLTFGGGTKVEIKRTVAAPSVFIFPPSDEQLKSGTAESKYGPPCPPCPMFWVLVVVGGVLACYSLLVTVAFIIFWVKRGRKKLLYIFKQPFMRPVQTTQEEDGCSCRFPEEEEGGCELRVKFSRSADAPAYQQGQNQLYNELNLGRREEYDVLDKRRGRDPEMGGKPRRKNPQEGLYNELQKDKMAEAYSEIGMKGERRRGKGHDGLYQGLSTATKDTYDALHMQALPPR
notes: Residues 1-22 are the GM-CSF signal peptide, left out
B1: the binding result in assay [1] and in assay [2] was “no binding” throughout.

B2: VH VL S anti-PD-1 CAR BD ΔCD3ζ (other)
chain: QVQLVQSGVEVKKPGASVKVSCKASGYTFANYFMYWVRQAPGQGLEWMGGIAPAAGGAAFNEKFKNRVTLTTDSSTTTAYMELKSLQFDDTAVYYCARADFAFDMGFDYWGQGTTVTVSSASTKGGGGGSGGGGSGGGGSEIVLTQSPATLSLSPGERATLSCRASKGVSTAGFSYLHWYQQKPGQAPRLLIFLASFLESGVPARFSGSGSGTDFTLTISSLEPEDFAVYYCQHARALPLTFGGGTKVEIKRTVAAPSVFIFPPSDEQLKSGTAESKYGPPCPPCPMFWVLVVVGGVLACYSLLVTVAFIIFWVKRGRKKLLYIFKQPFMRPVQTTQEEDGCSCRFPEEEEGGCEL
notes: as for B1
Take B2: the binding result in assay [1] and in assay [2] was “no binding” each time.

Source of the values: US20260240908A1 (FRED HUTCHINSON CANCER CENTER, published 2026).
